Blank lines part the entries; values can stand above or below the binder they belong to.
Experiments:
[1] = molecular target: human CD112R, full length, expressed on cells (YTS-hCD112R; Jurkat-NFAT-luc-hCD112R) (human) (UniProt Q6DKI7); test: cell-based or functional assay
hCD112R-ECD-His6-Avi [2] = molecular target: T1, hCD112R-ECD-His6-Avi (human, UniProt Q6DKI7 42-172, biotinylated (Avi tag) in the ELISA assays); test: SPR (Biacore T200), multi-cycle, 733-mIgG2a captured by Protein A/G, hCD112R-ECD-His6-Avi as analyte, 1:1 Langmuir model
T1 construct: range 42-172; Expressed in HEK 293F cells; Analyte in SPR, and captured on streptavidin in ELISA; also called biotinylated hCD112R-ECD-His6-Avi; not shown: C-terminal His6-Avi tag
T1 sequence (looked up): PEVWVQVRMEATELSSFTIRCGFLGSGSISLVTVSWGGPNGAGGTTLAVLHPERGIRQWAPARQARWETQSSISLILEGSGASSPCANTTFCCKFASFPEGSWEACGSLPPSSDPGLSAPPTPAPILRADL
Method: (§1) Protein A/G (Thermo Fisher) was covalently attached to surfaces of a CM5 sensor chip using an amine coupling kit (GE Healthcare). […] Binding kinetics were evaluated using a 1:1 Langmuir binding model. The association rates (ka), dissociation rates (kd), and affinity constants (KD) were calculated using Biacore T200 evaluation software.

[3] = molecular target: T2, human CD112R, full length, expressed on cells (YTS-hCD112R; Jurkat-NFAT-luc-hCD112R) (human, UniProt Q6DKI7 42-326); test: FACS competition on YTS-hCD112R cells against hCD112-ECD-hFc, ligand detected with goat anti-human IgG-FITC
T2 construct: whole, on cells; also called PVRIG; YTS-hCD112R cells
T2 sequence (looked up): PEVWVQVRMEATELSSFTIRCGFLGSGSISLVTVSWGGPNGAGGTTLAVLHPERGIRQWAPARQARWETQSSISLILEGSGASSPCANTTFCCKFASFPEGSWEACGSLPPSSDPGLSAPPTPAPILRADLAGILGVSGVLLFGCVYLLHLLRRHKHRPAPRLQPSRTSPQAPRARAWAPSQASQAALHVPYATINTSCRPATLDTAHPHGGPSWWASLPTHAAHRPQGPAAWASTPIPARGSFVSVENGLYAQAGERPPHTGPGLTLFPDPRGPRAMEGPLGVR
Description: (§2) Then cells were washed three times with PBS containing 0.5% BSA. Ligands binding to cells were detected by adding goat anti-human IgG-FITC Ab (Pierce-Thermo Fisher Scientific).

hCD112R-ECD-His6-Avi [4] = molecular target: T1, hCD112R-ECD-His6-Avi; test: SPR (Biacore T200), multi-cycle; 733-mIgG2a captured on Protein A/G, hCD112R-ECD-His6-Avi injected; 1:1 Langmuir
Method: as §1

hCD112R-ECD-His6-Avi [5] = molecular target: T1, hCD112R-ECD-His6-Avi; test: SPR (Biacore T200), multi-cycle; 733-mIgG2a captured on Protein A/G, hCD112R-ECD-His6-Avi injected; 1:1 Langmuir (the text prints the rounded 0.2 nM)
Method: as §1

[6] = molecular target: T2, human CD112R, full length, expressed on …; test: FACS-based competition on YTS-hCD112R cells, competitor hCD112-ECD-hFc
Description: as §2

[7] = molecular target: T3, hCD112-ECD-hFc (extracellular domain of hCD112 fused to the Fc domain of human IgG1) (human, UniProt Q92692 32-360); test: SPR (Biacore T200), single injection; hCD112R-ECD-mFc variant captured on anti-mFc Ab, hCD112-ECD-hFc injected
T3 construct: extracellular domain; also called hCD112 ligand; not shown: Fc domain of human IgG1
T3 sequence (looked up): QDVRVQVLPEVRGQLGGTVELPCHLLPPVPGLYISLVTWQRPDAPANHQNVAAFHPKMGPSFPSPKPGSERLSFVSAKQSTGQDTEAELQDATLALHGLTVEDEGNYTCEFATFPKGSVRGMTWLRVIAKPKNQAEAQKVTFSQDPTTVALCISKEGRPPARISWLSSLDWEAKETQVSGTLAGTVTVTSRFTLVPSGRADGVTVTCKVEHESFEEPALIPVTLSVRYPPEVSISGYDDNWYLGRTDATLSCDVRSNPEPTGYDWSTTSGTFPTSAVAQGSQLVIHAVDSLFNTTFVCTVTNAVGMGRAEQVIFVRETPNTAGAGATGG
Method: (§3) Kinetic analyses of the bindings of WT or mutated hCD112R-ECD-mFc proteins to H733 and hCD112-ECD were performed on a Biacore T200 instrument (Biacore, GE Healthcare). For the single-cycle SPR analysis, anti-mFc Ab (Thermo Fisher) was covalently attached to surfaces of a CM5 sensor chip using an amine coupling kit (GE Healthcare). WT or mutated hCD112R-ECD mFc fusion proteins were captured on the chip and H733-hIgG4 or hCD112-ECD-hFc were then injected. For the multi-cycle SPR analysis, anti-hFc Ab (Thermo Fisher) was covalently attached to surfaces of a CM5 sensor chip using an amine coupling kit (GE Healthcare). H733-hIgG4 or hCD112-ECD-hFc protein was captured on the chip and 2-fold serially diluted WT or mutated hCD112R-ECD-mFc proteins (3.125-100 nM) were then injected. Binding kinetics were evaluated using a 1:1 Langmuir binding model. The association rates (ka), dissociation rates (kd), and affinity constants (KD) were calculated using Biacore T200 evaluation software.

[8] = molecular target: T3, hCD112-ECD-hFc (extracellular domain of …); test: SPR (Biacore T200), multi-cycle; hCD112-ECD-hFc captured on anti-hFc Ab, hCD112R-ECD-mFc variant injected (3.125-100 nM); 1:1 Langmuir [Cont') C]
Method: as §3

[9] = molecular target: T3, hCD112-ECD-hFc (extracellular domain of …); test: SPR (Biacore T200), multi-cycle; hCD112-ECD-hFc captured on anti-hFc Ab, hCD112R-ECD-mFc variant injected [Cont') C]
Method: as §3

[10] = molecular target: T3, hCD112-ECD-hFc (extracellular domain of …); test: SPR (Biacore T200), multi-cycle; hCD112-ECD-hFc captured on anti-hFc Ab, hCD112R-ECD-mFc WT injected (3.125-100 nM); 1:1 Langmuir [Cont') C]
Method: as §3

EC50 of luciferase production, Jurkat-NFAT-luc-hCD112R reporter cells with CHO-OKT3scFv hCD112 cells [1]: 0.69 µg/mL
B1: COM701 (humanized anti-hCD112R Ab developed by the Compugen Company, hIgG4) (antibody, from another filing, V domains shown)
VH: QVQLVQSGAEVKKPGASVKVSCKASGYTFTDYNINWVRQAPGQGLEWMGYIYPYIGGSGYAQKFQGRVTMTRDTSTSTVYMELSSLRSEDTAVYYCAREDKTARNAMDYWGQGTLVTVSS
VL: DIQMTQSPSSLSASVGDRVTITCRVSENIYSNLAWYQQKPGKAPKLLIYEATNLAEGVPSRFSGSGSGTDFTLTISSLQPEDFATYYCQHFWGTPYTFGQGTKLEIK

Kd (hCD112R-ECD-His6-Avi [2]): 0.2 nM
IC50 (read off the curve) [3]: ~2 µg/mL
koff (hCD112R-ECD-His6-Avi [4]): 0.000888 s⁻¹
kon (hCD112R-ECD-His6-Avi [4]): 4.49e+06 M⁻¹ s⁻¹
Kd (hCD112R-ECD-His6-Avi [5]): 0.198 nM
IC50 [6]: 0.29 µg/mL
B2: anti-hCD112R mAb 733 (733-mIgG2a) (antibody, V domains shown)
VH: QVQLQQSGAELVRPGTSVKVSCKASGYAFTNYLIEWLKQRPGQGLEWIGVINPGHGFTNYNEKFKGKATLTADKSSSTAYMQLSSLTSDDSAVYFCARGEWDWYFDVWGAGTTVTVSS
VL: DIVMTQSQKFMSTSVGDRVSITCKASQNVGTAVAWYQQKPGQSPKLLIYSTSNRYTGVPDRFTGSGSGTDFTLTISNLQSEDLADYFCQQCSSYPFTFGSGTKLEIK
notes: VH and VL were cloned onto the constant regions of mouse IgG2a heavy and light chains (full-length mIgG2a, made in HEK 293F)

binding result [9]: no binding
B5: L72A (Fc fusion, human, UniProt Q6DKI7 42-172, looked up)
Fc fusion chain: PEVWVQVRMEATELSSFTIRCGFLGSGSISAVTVSWGGPNGAGGTTLAVLHPERGIRQWAPARQARWETQSSISLILEGSGASSPCANTTFCCKFASFPEGSWEACGSLPPSSDPGLSAPPTPAPILRADL
notes: extracellular domain, amino acids 42-172; alanine-scanning variant; also called hCD112R-ECD-mFc L72A variant

Kd [10]: 64.3 nM
koff [10]: 0.00514 s⁻¹
kon [10]: 80000 M⁻¹ s⁻¹
B7: hCD112R-ECD-mFc WT (Fc fusion, human, UniProt Q6DKI7 42-172, looked up)
chain: PEVWVQVRMEATELSSFTIRCGFLGSGSISLVTVSWGGPNGAGGTTLAVLHPERGIRQWAPARQARWETQSSISLILEGSGASSPCANTTFCCKFASFPEGSWEACGSLPPSSDPGLSAPPTPAPILRADL
notes: range 42-172; also called WT hCD112R; wildtype (WT) hCD112R protein; not shown: Fc domain of mouse IgG2a

Continued, binder first:

B3: S67P (Fc fusion, human, UniProt Q6DKI7 42-172, looked up)
Fc fusion chain: PEVWVQVRMEATELSSFTIRCGFLGPGSISLVTVSWGGPNGAGGTTLAVLHPERGIRQWAPARQARWETQSSISLILEGSGASSPCANTTFCCKFASFPEGSWEACGSLPPSSDPGLSAPPTPAPILRADL
notes: extracellular domain, amino acids 42-172; also called hCD112R-ECD-mFc S67P variant
binding result [7]: binds

B4: E94A (Fc fusion, human, UniProt Q6DKI7 42-172, looked up)
Fc fusion chain: PEVWVQVRMEATELSSFTIRCGFLGSGSISLVTVSWGGPNGAGGTTLAVLHPARGIRQWAPARQARWETQSSISLILEGSGASSPCANTTFCCKFASFPEGSWEACGSLPPSSDPGLSAPPTPAPILRADL
notes: extracellular domain, amino acids 42-172; alanine-scanning variant; also called hCD112R-ECD-mFc E94A variant
Kd [8]: 112 nM
koff [8]: 0.0126 s⁻¹
kon [8]: 112000 M⁻¹ s⁻¹

B6: H92A (Fc fusion, human, UniProt Q6DKI7 42-172, looked up)
Fc fusion chain: PEVWVQVRMEATELSSFTIRCGFLGSGSISLVTVSWGGPNGAGGTTLAVLAPERGIRQWAPARQARWETQSSISLILEGSGASSPCANTTFCCKFASFPEGSWEACGSLPPSSDPGLSAPPTPAPILRADL
notes: extracellular domain, amino acids 42-172; alanine-scanning variant; also called hCD112R-ECD-mFc H92A variant
Kd [8]: 72.1 nM
koff [8]: 0.00532 s⁻¹
kon [8]: 73700 M⁻¹ s⁻¹
